Data from article PMC7490560 (2020).

Legend:
EIF3J = EIF3J (Homo sapiens, UniProt O75822); assay: FCCS (live HEK293T cells)
FOSL2 [1] = biological target: T1, FOSL2 (Homo sapiens, UniProt P15408); assay: FCCS (live HEK293T cells)
T1 chain: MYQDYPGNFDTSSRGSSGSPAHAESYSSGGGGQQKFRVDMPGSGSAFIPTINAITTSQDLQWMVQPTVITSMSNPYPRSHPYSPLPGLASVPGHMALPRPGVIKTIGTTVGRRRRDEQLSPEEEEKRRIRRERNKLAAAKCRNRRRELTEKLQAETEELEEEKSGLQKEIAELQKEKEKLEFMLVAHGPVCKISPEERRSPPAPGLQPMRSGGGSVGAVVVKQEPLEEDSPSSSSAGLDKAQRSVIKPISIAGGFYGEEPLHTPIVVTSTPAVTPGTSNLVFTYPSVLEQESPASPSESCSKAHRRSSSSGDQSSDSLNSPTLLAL

ELF3 [2] = biological target: T2, ELF3 (Homo sapiens, UniProt P78545); assay: FCCS (live HEK293T cells)
T2 chain: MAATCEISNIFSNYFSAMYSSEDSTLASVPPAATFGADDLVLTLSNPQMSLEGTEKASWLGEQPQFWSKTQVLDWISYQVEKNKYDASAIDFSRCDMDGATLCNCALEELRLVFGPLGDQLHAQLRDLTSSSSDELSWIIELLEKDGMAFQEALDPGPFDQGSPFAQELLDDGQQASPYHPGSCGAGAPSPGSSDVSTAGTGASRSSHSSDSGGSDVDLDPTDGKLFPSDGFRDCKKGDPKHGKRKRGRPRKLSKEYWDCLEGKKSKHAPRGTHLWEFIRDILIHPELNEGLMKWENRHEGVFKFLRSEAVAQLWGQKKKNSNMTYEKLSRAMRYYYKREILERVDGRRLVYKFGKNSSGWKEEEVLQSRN

CREBL2 = biological target: T3, CREBL2 (Homo sapiens, UniProt O60519); assay: FCCS (live HEK293T cells)
T3 chain: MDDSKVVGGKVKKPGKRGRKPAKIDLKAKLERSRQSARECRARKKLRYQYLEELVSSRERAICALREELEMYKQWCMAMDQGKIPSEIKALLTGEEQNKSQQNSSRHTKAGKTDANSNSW

CEBPG [3] = biological target: T4, CEBPG (Homo sapiens, UniProt P53567); assay: FCCS (live HEK293T cells)
T4 chain: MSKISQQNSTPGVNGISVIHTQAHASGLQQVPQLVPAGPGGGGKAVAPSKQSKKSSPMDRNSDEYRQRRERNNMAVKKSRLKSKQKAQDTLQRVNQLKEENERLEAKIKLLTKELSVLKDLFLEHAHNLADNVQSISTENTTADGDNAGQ

FOSL2 [4] = biological target: T1, FOSL2; assay: DULIP (scaled)
ELF3 [5] = biological target: T2, ELF3; assay: DULIP (scaled)
DDIT3 = biological target: T5, DDIT3 (Homo sapiens, UniProt P35638); assay: DULIP (scaled)
T5 chain: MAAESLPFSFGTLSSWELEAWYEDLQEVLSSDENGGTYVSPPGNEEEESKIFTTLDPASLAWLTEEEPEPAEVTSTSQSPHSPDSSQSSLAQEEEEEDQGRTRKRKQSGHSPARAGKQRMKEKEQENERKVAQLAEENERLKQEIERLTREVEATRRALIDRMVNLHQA

CEBPG [6] = biological target: T4, CEBPG; assay: DULIP (scaled)
MAP2K6 = biological target: T6, MAP2K6 (Homo sapiens, UniProt P52564); assay: DULIP (scaled)
T6 chain: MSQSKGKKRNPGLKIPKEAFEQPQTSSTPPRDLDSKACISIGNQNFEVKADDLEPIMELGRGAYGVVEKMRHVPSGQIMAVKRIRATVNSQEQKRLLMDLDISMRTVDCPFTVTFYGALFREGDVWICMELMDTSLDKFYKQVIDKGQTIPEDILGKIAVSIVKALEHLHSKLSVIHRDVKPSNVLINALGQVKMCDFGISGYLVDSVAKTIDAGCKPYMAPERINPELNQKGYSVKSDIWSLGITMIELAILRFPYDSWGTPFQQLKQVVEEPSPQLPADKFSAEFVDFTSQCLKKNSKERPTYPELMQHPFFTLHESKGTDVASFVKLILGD

FOSB = biological target: T7, FOSB (Homo sapiens, UniProt P53539); assay: DULIP (scaled)
T7 chain: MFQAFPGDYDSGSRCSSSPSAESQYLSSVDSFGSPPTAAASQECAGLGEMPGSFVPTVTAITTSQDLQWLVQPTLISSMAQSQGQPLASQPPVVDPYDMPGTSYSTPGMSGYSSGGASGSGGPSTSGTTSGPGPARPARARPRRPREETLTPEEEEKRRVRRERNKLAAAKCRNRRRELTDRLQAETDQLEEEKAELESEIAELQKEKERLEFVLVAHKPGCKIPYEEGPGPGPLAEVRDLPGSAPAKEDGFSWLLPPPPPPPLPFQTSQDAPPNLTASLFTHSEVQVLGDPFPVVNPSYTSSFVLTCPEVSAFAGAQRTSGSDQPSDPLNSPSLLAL

EIF3J, sequence (O75822 2-258): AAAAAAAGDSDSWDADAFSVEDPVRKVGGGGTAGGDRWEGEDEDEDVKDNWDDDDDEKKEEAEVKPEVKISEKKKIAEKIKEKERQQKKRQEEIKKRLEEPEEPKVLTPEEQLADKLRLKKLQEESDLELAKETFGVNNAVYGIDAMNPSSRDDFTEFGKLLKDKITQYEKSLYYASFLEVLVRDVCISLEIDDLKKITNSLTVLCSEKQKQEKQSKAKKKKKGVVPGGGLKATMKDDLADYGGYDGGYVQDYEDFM

B1: NRF2 (protein)
chain: MMDLELPPPGLPSQQDMDLIDILWRQDIDLGVSREVFDFSQRRKEYELEKQKKLEKERQEQLQKEQEKAFFAQLQLDEETGEFLPIQPAQHIQSETSGSANYSQVAHIPKSDALYFDDCMQLLAQTFPFVDDNEVSSATFQSLVPDIPGHIESPVFIATNQAQSPETSVAQVAPVDLDGMQQDIEQVWEELLSIPELQCLNIENDKLVETTMVPSPEAKLTEVDNYHFYSSIPSMEKEVGNCSPHFLNAFEDSFSSILSTEDPNQLTVNSLNSDATVNTDFGDEFYSAFIAEPSISNSMPSPATLSHSLSELLNGPIDVSDLSLCKAFNQNHPESTAEFNDSDSGISLNTSPSVASPEHSVESSSYGDTLLGLSDSEVEELDSAPGSVKQNGPKTPVHSSGDMVQPLSPSQGQSTHVHDAQCENTPEKELPVSPGHRKTPFTKDKHSSRLEAHLTRDELRAKALHIPFPVEKIINLPVVDFNEMMSKEQFNEAQLALIRDIRRRGKNKVAAQNCRKRKLENIVELEQDLDHLKDEKEKLLKEKGENDKSLHLLKKQLSTLYLEVFSMLRDEDGKPYSPSEYSLQQTRDGNVFLVPKSKKPDVKKN
Kd (EIF3J): > 10 µM | Kd (FOSL2 [1]): > 10 µM | Kd (ELF3 [2]): > 10 µM | Kd (CREBL2): > 10 µM | Kd (CEBPG [3]): > 10 µM | Kd (FOSL2 [4]): > 9 µM | Kd (ELF3 [5]): > 9 µM | Kd (DDIT3): > 9 µM | Kd (CEBPG [6]): > 9 µM | Kd (MAP2K6): > 9 µM | Kd (FOSB): > 9 µM
